Reference: paper PMC5446404

Target: recombinant human fortilin (Strep-tag II), biotinylated (human) (UniProt P13693)
Experiment: BLI
Conditions: domain or fragment

GST-IRE1α-L (aa 1-70), sequence (O75460 19-70): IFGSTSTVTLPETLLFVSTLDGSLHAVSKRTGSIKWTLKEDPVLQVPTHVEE
recombinant human fortilin (Strep-tag II), biotinylated (human), sequence (P13693 whole entry): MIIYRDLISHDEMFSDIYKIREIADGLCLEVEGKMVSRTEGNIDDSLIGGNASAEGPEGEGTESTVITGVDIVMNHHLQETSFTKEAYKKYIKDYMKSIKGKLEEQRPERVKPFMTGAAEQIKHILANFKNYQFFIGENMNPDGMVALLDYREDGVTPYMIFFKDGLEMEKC

Kd: 18 mM
Substance: GST-IRE1α-L (aa 1-70) (from UniProt O75460 19-70)
